CN117088968A

Target: 2019-nCoV N蛋白抗原 (2019-nCoV (新型冠状病毒)) (UniProt P0DTC9)
Assay: AMC sensor, antibody captured at 10 μg/mL, N protein antigen in serial dilution in PBST

## 对照 (antibody)
  Kd: 0.0243 µM
  koff: 0.00011 s⁻¹
  kon: 4520 M⁻¹ s⁻¹
